The values that follow come from patent US10202593B2, “Evolved sortases and uses thereof” (President and Fellows of Harvard College, priority 2013, dated 2019).

Data set [1] concerns GGG-functionalized amphiphilic diblock polypeptide. The experiment in a line: GGG-diblock functionalization. It counts as biochemical. To be noted: Alexa Fluor 488-LAETG or 647-LPESG, 1 hour. The procedure:
Amphiphilic diblock polypeptide (Diblock) was co-incubated with Alexa Fluor® 488-LAETG (SEQ ID NO: 5), Alexa Fluor® 647-LPESG (SEQ ID NO: 3), eSrtA(2A-9), and/or eSrtA(4S-9). The reactions were analyzed by denaturing gel electrophoresis and visualized using either Coomassie stain (top), 488 fluorescence (bottom, blue), or 647 fluorescence (bottom, red). Magenta denotes the overlap of blue and red fluorescence signals.
GGG-functionalized recombinant amphiphilic diblock polypeptide (Diblock), GGG-Diblock, was used as a substrate to test the orthogonality of the two evolved sortases in solution. GGG-Diblock based on elastin-mimetic polypeptide sequences was prepared as previously described (Kim et al. Self-Assembly of Thermally Responsive Amphiphilic Diblock Copolypeptides into Spherical Micellar Nanoparticles. Angewandte Chemie International Edition 49, 4257-4260, doi:10.1002/anie.201001356 (2010)) with slight changes in sequence by genetically incorporating an N-terminal triglycine motif. A complete amine acid sequence is GGG-VPGEG-[(VPGVG)(VPGEG)(VPGVG)(VPGEG)(VPGVG)]10-CCCCGG-[(IPGVG)2VPGYG(IPGVG)2]15-VPGYG (SEQ ID NO: 75). In a 0.6 mL Eppendorf tube, GGG-functionalized Diblock (10 μM) was mixed with fluorophore-peptide (0.1 μM), evolved sortase (15 μM) and CaCl2 (100 mM), then reacted for 1 hour at room temperature. […]

The next data set has as its system LPECG. The experiment in a line: In vitro sortase kinetics HPLC assay, LPECG substrate. It is filed as biochemical. The procedure: See below for details on sortase expression and purification, and on the synthesis of Abz-LPETGK(Dnp)-CONH2 (SEQ ID NO: 19). […] Reactions were initiated with the addition of enzyme and incubated at 22.5° C. for 3 to 20 minutes before quenching with 0.5 volumes of 1 M HCl. Five to ten nmol of peptide from the quenched reactions were injected onto an analytical reverse-phase Eclipse XDB-C18 HPLC column (4.6×150 mm, 5 μm, Agilent Technologies) and chromatographed using a gradient of 10 to 65% acetonitrile with 0.1% TFA in 0.1% aqueous TFA over 13 minutes. Retention times under these conditions for the Abz-LPETGK(Dnp)-CONH2 (SEQ ID NO: 19) substrate, the released GKDnp peptide, and the Abz-LPETGGG-COOH (SEQ ID NO: 20) product were 12.8, 10.4, and 9.1 min, respectively. To calculate the percent conversion, the ratio of the integrated areas of the Abz-LPETGGG-COOH (SEQ ID NO: 20) and Abz-LPETGK(Dnp)-CONH2 (SEQ ID NO: 19) peptide Abs220 peaks was compared to a standard curve generated by mixing the product and starting peptide in known ratios. To determine […] and Km, reaction rates were fit to the Michaelis-Menten equation using OriginPro 7.0 software. All kinetics values reported represent the average of at least three measurements. Percent conversion was also calculated by using the ratio of the integrated areas of the GK(Dnp)-CONH2 and Abz-LPETGK(Dnp)-CONH2 peptide Abs355 peaks were compared directly (Example 5). To determine kcat and Km, LPETG, reaction rates were fit to the Michaelis-Menten equation using Microsoft Excel using the Solver add-in. To determine Km,GGG and KH, reaction rates were fit to the modified Michaelis-Menten, for which KH is as defined when KH<<Km,GGG.
Assays to determine eSrtA, eSrtA(2A-9) and eSrtA(4S-9) specificity were performed by preparing 10 μM stocks of Abz-LXEXGK(Dnp) (SEQ ID NO: 75) peptides in 300 mM Tris pH 7.5, 150 mM NaCl, 5 mM CaCl2, 5% v/v DMSO, and 100 mM Gly-Gly-Gly-COOH (GGG). Reactions were performed by adding eSrtA(2A-9) to a final concentration of 450 nM, eSrtA(4S-9) to a final concentration of 115 nM or eSrtA to a final concentration of 47.5 nM and a final volume of 100 μL, then incubating at 22.5° C. for 15 minutes. Reactions were quenched by the addition of 0.2 volumes of 5 M HCl, then were injected onto an analytical reverse-phase Eclipse XDB-C18 HPLC column (4.6×150 mm, 5 μm, Agilent Technologies) and chromatographed using a gradient of 10 to 65% acetonitrile with 0.1% TFA in 0.1% aqueous TFA over 13 minutes. Retention times under these conditions for the Abz-LPETGK(Dnp)-CONH2 (SEQ ID NO: 19) substrate, the released GKDnp peptide, and the Abz-LPETGGG-COOH (SEQ ID NO: 20) product were 12.8, 10.4, and 9.1 min, respectively, while the remaining Abz-LXEXGK(Dnp)-CONH2 (SEQ ID NO: 74) substrates varied in retention time between 9 and 13 minutes. To calculate the percent conversion, the ratio of the integrated areas of the GK(Dnp)-CONH2 and Abz-LPETGK(Dnp)-CONH2 (SEQ ID NO: 19) peptide Abs355 peaks were compared directly. Subsequent determination of kcat/Km and KH were performed as described for in vitro SrtA characterization.
The original pentamutant comprising the mutations P94R, D160N, D165A, K190E, and K196T is referred to as eSrtA. Sortase variants herein were evolved using eSrtA as the parent enzyme in the evolution experiments. In some cases, an evolved sortase comprises a N160K mutation instead of a D160N or a T196S mutation instead of a K196T. Parameters are reported with their standard deviations as determined from three technical replicates. kcat, Km and kcat/Km parameters were determined at 100 mM GGG concentration, while Km,GGG and KH parameters were determined at 1 mM concentration of the listed substrate.

Setting [2] is: Sub LPECG, 100 mM GGG, read-out: Km.

Usually Km stands for the substrate concentration at which the rate is half of its maximum.

Read-outs that look alike come from different tables or passages of the source.

GGG-functionalized amphiphilic diblock polypeptide, sequence (as listed by the source): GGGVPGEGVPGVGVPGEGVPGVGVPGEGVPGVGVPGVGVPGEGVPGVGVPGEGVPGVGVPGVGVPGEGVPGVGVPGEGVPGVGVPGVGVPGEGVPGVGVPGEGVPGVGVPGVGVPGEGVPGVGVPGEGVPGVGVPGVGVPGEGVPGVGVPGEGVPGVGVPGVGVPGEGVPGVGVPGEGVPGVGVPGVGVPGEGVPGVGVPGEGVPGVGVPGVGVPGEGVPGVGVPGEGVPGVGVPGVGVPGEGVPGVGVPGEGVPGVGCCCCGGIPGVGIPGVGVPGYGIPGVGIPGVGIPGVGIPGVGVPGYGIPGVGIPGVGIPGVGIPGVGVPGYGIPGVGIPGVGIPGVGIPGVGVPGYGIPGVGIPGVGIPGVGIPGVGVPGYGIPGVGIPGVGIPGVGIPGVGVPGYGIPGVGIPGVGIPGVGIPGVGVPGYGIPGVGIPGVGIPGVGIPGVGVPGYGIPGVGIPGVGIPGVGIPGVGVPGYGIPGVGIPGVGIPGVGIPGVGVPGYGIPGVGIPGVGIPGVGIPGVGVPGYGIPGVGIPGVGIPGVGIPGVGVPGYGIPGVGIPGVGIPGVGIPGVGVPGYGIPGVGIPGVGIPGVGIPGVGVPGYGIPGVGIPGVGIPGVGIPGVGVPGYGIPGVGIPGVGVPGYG

B1: eSrtA(2A-9): P94R, S102C, A104H, E105D, K138P, K152I, N160K, K162H, T164N, D165A, K173E, I182V, K190E, T196S (protein)
chain: QAKPQIPKDKSKVAGYIEIPDADIKEPVYPGPATREQLNRGVCFHDENESLDDQNISIAGHTFIDRPNYQFTNLKAAKPGSMVYFKVGNETRIYKMTSIRKVHPNAVEVLDEQEGKDKQLTLVTCDDYNEETGVWESRKIFVATEVK
On to B1, for which the peptide-diblock conjugation entry in data set [1] is recorded as “no detectable off-target substrate conjugation”.

B2: eSrtA (protein)
chain: QAKPQIPKDKSKVAGYIEIPDADIKEPVYPGPATREQLNRGVSFAEENESLDDQNISIAGHTFIDRPNYQFTNLKAAKKGSMVYFKVGNETRKYKMTSIRNVKPTAVEVLDEQKGKDKQLTLITCDDYNEETGVWETRKIFVATEVK
Turning to B2, the “activity for LPECG compared with LPETG” value in the data set with LPECG is “exceeds that of LPETG”. In the data set on LPECG (1 mM LPECG), the “KH” value came out at 620 ± 150 µM. Moreover, the Km was found to be 57 ± 33 mM in the data set on LPECG (1 mM LPECG, read-out: Km,GGG) and 0.0725 ± 0.0056 mM in the data set on LPECG (setting [2]). In addition, the “Kcat (Hz)” value in the data set on LPECG (Sub LPECG, 100 mM GGG) is given as 3.5 ± 0.3 Hz.

B3: eSrtA(4S-9): P94R, N98D, S102C, A104V, A118T, F122A, K134R, F144L, D160N, D165A, I182V, E189F, K190E, K196T (protein)
chain: QAKPQIPKDKSKVAGYIEIPDADIKEPVYPGPATREQLDRGVCFVEENESLDDQNISITGHTAIDRPNYQFTNLRAAKKGSMVYLKVGNETRKYKMTSIRNVKPTAVEVLDEQKGKDKQLTLVTCDDYNFETGVWETRKIFVATEVK
B3: the “activity for LPECG compared with LPETG” value with LPECG is given as “exceeds that of LPETG”. Also, the “KH” value in the data set on LPECG (1 mM LPECG) stood at 120 ± 23 µM. The Km is 55 ± 1.4 mM in the data set with LPECG (1 mM LPECG, read-out: Km,GGG) and 0.069 ± 0.013 mM with LPECG (setting [2]). Moreover, the “Kcat (Hz)” value with LPECG (Sub LPECG, 100 mM GGG) amounted to 5.0 ± 0.6 Hz. For the same molecule, the peptide-diblock conjugation entry in data set [1] is “no detectable off-target substrate conjugation”.
